Reference: US20070083037A1 (published 2007)
Where no end group is shown, it is not given here.

T1: rhesus monkey NPY Y4 receptor protein of SEQ ID NO: 4 (encoded by the nucleotide sequence of SEQ ID NO: 3) (rhesus monkey, UniProt P0DQD5 1-375 (human entry))
T1 construct: 375 residues; also called rhesus monkey Y4 receptor
T1 chain: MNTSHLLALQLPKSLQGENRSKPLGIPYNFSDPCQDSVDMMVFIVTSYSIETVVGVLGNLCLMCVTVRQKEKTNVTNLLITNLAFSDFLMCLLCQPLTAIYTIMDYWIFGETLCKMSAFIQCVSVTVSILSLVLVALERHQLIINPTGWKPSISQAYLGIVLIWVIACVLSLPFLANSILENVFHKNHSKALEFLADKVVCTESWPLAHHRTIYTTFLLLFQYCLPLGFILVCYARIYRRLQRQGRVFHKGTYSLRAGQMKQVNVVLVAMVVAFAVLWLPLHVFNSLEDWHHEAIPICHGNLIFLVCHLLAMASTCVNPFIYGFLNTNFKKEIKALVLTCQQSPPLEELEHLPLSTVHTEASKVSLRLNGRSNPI

T2: rhesus monkey NPY Y4 receptor protein of SEQ ID NO: 2 (encoded by the nucleotide sequence of SEQ ID NO: 1) (rhesus monkey, UniProt P0DQD5 1-375 (human entry))
T2 construct: 375 residues; also called rhesus monkey Y4 receptor
T2 chain: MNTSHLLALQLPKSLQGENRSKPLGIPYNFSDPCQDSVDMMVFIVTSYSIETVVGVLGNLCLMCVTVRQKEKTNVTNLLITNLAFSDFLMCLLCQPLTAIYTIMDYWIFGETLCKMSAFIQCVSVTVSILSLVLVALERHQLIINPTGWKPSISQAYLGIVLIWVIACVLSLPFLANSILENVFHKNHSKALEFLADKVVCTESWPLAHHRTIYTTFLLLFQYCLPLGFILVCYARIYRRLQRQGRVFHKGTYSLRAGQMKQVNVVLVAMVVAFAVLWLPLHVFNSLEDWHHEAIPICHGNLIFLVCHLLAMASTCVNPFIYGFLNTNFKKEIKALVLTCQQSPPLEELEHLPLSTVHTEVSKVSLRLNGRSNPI


Tests used:
[1] = target: T1, rhesus monkey NPY Y4 receptor protein …; test: competition against 59 pM [125I]human PP, COS-7 membrane fractions, filter binding
Description: (§1) The membrane fraction obtained in this manner was incubated for 2 hours at 25° C. together with 31 pM [¹²⁵I]human PP in 25 mM Tris buffer (pH 7.4) containing 10 mM MgCl₂, 1 mM phenylmethylsulfonyl fluoride, 0.1% bacitracin and 0.5% bovine serum albumin, and then filtered through a polyethyleneimine-treated UniFilter-96 GF/C (Perkin-Elmer). After rinsing with 5 mM Tris buffer (pH 7.4) containing 0.3% bovine serum albumin and drying, MicroScint0 (Perkin-Elmer) was added, and a TopCount HTS (Packard) was used to measure the residual radioactivity on the filter. The non-specific binding was measured in the presence of 1 μM human PP.
(§2) Also, with the membrane fraction concentration set to 0.155 and 0.14 mg protein/ml and the [¹²⁵I]human PP concentration set to 59 pM, human PP, human NPY and swine PYY were added to the reaction solution at different concentrations, and a Prism Version 4.00 (GraphPad) was used to determine the 50% inhibitory concentration (IC₅₀ value) from the inhibition curve for each peptide against specific [¹²⁵I]human PP binding (FIGS. 3 and 4).

[2] = target: T2, rhesus monkey NPY Y4 receptor protein …; test: as above
Description: as §1, §2

[3] = target: T1, rhesus monkey NPY Y4 receptor protein …; test: cell-based or functional assay
[4] = target: T2, rhesus monkey NPY Y4 receptor protein …; test: cell-based or functional assay

Binder	IC50 [1]	IC50 [2]	EC50 of the increase in fluorescent intensity (intracellular calcium ion concentration, Fluo-4, FLIPR) in CHO-K1 cells with G alpha 15 [3]	EC50 of the increase in fluorescent intensity (intracellular calcium ion concentration, Fluo-4, FLIPR) in CHO-K1 cells with G alpha 15 [4]
swine Peptide YY (mature; also called swine PYY; PYY) peptide: not shown	9.9 nM	10 nM		
human Neuropeptide-Y (mature; also called human NPY; NPY) peptide: not shown	97 nM	100 nM		
APLEPVYPGDNATPEQMAQYAADLRRYINMLTRPRY (peptide, UniProt P01298 30-65, looked up, ends and bridges not checked, mature; also called human PP; PP) [human Pancreatic Polypeptide]	0.17 nM	0.24 nM	4.8 nM	1.8 nM
